The test system of this experiment is IL-8 secretion of HT-29 cells. The experiment can be described thus: IL-8 secretion and viability of HT-29 cells pre-incubated with test compounds and challenged with Lyovec-complexed Poly I:C. It counts as cell-based, Human.

B1: Lactoferrin: lactoferrin, control test compound (protein, UniProt P02788 20-710, looked up)
Lactotransferrin: GRRRSVQWCAVSQPEATKCFQWQRNMRKVRGPPVSCIKRDSPIQCIQAIAENRADAVTLDGGFIYEAGLAPYKLRPVAAEVYGTERQPRTHYYAVAVVKKGGSFQLNELQGLKSCHTGLRRTAGWNVPIGTLRPFLNWTGPPEPIEAAVARFFSASCVPGADKGQFPNLCRLCAGTGENKCAFSSQEPYFSYSGAFKCLRDGAGDVAFIRESTVFEDLSDEAERDEYELLCPDNTRKPVDKFKDCHLARVPSHAVVARSVNGKEDAIWNLLRQAQEKFGKDKSPKFQLFGSPSGQKDLLFKDSAIGFSRVPPRIDSGLYLGSGYFTAIQNLRKSEEEVAARRARVVWCAVGEQELRKCNQWSGLSEGSVTCSSASTTEDCIALVLKGEADAMSLDGGYVYTAGKCGLVPVLAENYKSQQSSDPDPNCVDRPVEGYLAVAVVRRSDTSLTWNSVKGKKSCHTAVDRTAGWNIPMGLLFNQTGSCKFDEYFSQSCAPGSDPRSNLCALCIGDEQGENKCVPNSNERYYGYTGAFRCLAENAGDVAFVKDVTVLQNTDGNNNEAWAKDLKLADFALLCLDGKRKPVTEARSCHLAMAPNHAVVSRMDKVERLKQVLLHQQAKFGRNGSDCPDKFCLFQSETKNLLFNDNTECLARLHGKTTYEKYLGPQYVAGITNLKKCSTSPLLEACEFLRK
Consider B1, for which the “Mean IL-8 secretion” value runs as follows: (0.1% + Poly I:C, Poly I:C alone 21799.28) 9201.69 pg/mL; (0.1%, no Poly I:C, Medium 359.54) 343.19 pg/mL.

Values taken from patent US20260240884A1, “MIXTURE OF HUMAN MILK OLIGOSACCHARIDES” (N.V. Nutricia, priority 2023, published 2026).
